The subject of one test is CA1 neurons. Kind of test: Population Spike (PS) amplitudes in CA1 neurons in vivo. To be noted: microiontophoretic application of 1 mg ml^−1. The text has this: (§1) For example, one can measure Cortistatin activity by manually depolarizing a CA1 neuron to about −65 mV (resting potential at about −70 mV) to elicit action potential firing. […] One can measure Population Spike (PS) amplitudes in CA1 neurons in vivo, by generating stimulus response curves and relating the PS amplitude monotonically to stimulus intensity tested at three response levels: threshold, half-maximal, and maximal. […] Another assay for polypeptides having Cortistatin activity is the effect of intracerebroventricular administration to male Sprague—Dawley rats, anesthetized with halothane, of the polypeptide in question on the sleep—wake cycle of the rat. An active polypeptide would increase the period of slow wave sleep and decrease REM sleep.

The test system of the next test is CA1 neuron. Kind of test: action potential firing of a manually depolarized CA1 neuron. Conditions: superfusion by 1 μM; CA1 neuron depolarized to about −65 mV. It counts as cell-based.
Excerpt: as §1

B1: Human Cortistatin: Human Cortistatin polypeptide, brain neuropeptide; mature protein amino acid residues about 1 to about 86 in SEQ ID NO:2 (protein)
chain: MPLSPGLLLLLLSGATATAALPLEGGPTGRDSEHMQEAAGIRKSSLLTFLAWWFEWTSQASAGPLIGEEAREVARRQEGAPPQQSA
modifications: Human Cortistatin
With B1, in the test on CA1 neurons, the “PS amplitudes in CA1” value is “significantly decrease PS amplitudes”. The action potential discharge entry in the test with CA1 neuron was “abolish the action potential discharge”.

These data come from patent publication US6524826B1, “Polynucleotides encoding cortistatin polypeptides” (Human Genome Sciences, Inc., priority 1996, dated 2003).
